The source of these data is patent US20210046160A1 (Synthorx, Inc., priority 2019, published 2021).

Series [1] concerns the target T1, IL-2 receptor αβγ complex (Homo sapiens, UniProt P01589+P14784+P31785).
T1 construct: host or cells: recombinant human U2OS cell line (PathHunter), further engineered to express IL-2Rα
T1 sequence (P01589 22-272): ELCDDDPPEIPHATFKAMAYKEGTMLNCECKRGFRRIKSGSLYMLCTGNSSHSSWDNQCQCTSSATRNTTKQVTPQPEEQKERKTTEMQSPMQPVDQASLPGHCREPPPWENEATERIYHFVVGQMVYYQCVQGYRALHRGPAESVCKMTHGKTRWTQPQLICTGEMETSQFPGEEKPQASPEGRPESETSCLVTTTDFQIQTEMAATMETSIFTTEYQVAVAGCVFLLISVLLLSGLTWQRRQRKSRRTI
T1 sequence (P14784 27-551): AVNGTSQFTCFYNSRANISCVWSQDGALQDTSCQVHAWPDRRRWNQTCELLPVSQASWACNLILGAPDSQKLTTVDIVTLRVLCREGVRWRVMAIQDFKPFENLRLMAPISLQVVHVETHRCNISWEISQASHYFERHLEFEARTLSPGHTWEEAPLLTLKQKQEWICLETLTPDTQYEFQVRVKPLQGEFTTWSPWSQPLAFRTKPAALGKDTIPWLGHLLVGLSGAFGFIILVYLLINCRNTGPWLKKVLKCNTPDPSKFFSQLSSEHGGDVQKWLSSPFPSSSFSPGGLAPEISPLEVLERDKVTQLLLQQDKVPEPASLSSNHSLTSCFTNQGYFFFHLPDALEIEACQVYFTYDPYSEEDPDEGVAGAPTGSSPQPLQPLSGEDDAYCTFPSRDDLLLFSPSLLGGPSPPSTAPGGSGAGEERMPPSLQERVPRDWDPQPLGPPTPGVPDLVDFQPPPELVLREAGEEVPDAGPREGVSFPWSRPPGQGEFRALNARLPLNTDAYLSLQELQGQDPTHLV
T1 sequence (P31785 23-369): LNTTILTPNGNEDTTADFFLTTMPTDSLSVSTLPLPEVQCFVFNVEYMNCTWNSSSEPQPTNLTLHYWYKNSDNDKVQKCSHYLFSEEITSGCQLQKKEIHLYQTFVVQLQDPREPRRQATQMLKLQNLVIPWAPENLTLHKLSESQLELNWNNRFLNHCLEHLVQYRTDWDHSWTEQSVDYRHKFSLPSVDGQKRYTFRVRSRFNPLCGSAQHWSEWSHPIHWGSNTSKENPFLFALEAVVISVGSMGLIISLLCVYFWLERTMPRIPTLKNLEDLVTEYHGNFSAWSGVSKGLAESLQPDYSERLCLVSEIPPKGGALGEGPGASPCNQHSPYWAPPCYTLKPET
Description: PathHunter IL-2 Cytokine Receptor assay, agonist mode, cell line further expressing IL-2Rα. The following applies: IL2Rα-positive U2OS cell line; 10 kD PEGylated conjugates, * = 30 kD. In kind it is cell-based. As to the method: (§1) PathHunter cell lines were expanded from freezer stocks according to standard procedures. Cells were seeded in a total volume of 20 μL into white walled, 384-well microplates and incubated for the appropriate time prior to testing.
(§2) For agonist determination, cells were incubated with sample to induce response. Intermediate dilution of sample stocks was performed to generate 5× sample in assay buffer. About 5 μL of 5× sample was added to cells and incubated at 37° C. for 6 to 16 hours depending on the assay. Vehicle concentration was 1%.
(§3) Assay signal was generated through a single addition of 12.5 or 15 μL (50% v/v) of PathHunter Detection reagent cocktail for agonist and antagonist assays respectively, followed by a one hour incubation at room temperature. For some assays, activity was detected using a high sensitivity detection reagent (PathHunter Flash Kit) to improve assay performance. In these assays, an equal volume of detection reagent (25 or 30 μL) was added to the wells, followed by a one hour incubation at room temperature. Microplates were read following signal generation with a PerkinElmer Envision™ instrument for chemiluminescent signal detection.
(§4) Compound activity was analyzed using CBIS data analysis suite (ChemInnovation, CA). For agonist mode assays, percentage activity was calculated using the following Formula:
(§5) % Activity=100%×(mean RLU of test sample−mean RLU of vehicle control)/(mean MAX RLU control ligand−mean RLU of vehicle control).
(§6) A second cell line has been further engineered to express the IL-2Rα subunit. […] The assay was run in agonist mode to determine the EC50 of each test article, and comparison of dose-response curve profiles between IL2Rα positive and negative cell types allows determination of the contribution of IL2Rα to the observed activity.

Series [2] deals with T2, IL-2 receptor βγ complex (IL-2Rβ and IL-2Rγ subunits) (Homo sapiens, UniProt P14784+P31785).
T2 construct: host or cells: recombinant human U2OS cell line (PathHunter)
T2 sequence (P14784 27-551): T1 sequence (P14784 27-551)
T2 sequence (P31785 23-369): T1 sequence (P31785 23-369)
Description: PathHunter IL-2 Cytokine Receptor assay, agonist mode, βγ cell line. Particulars: for EC50: IL2Rα-negative U2OS cell line, 10 kD PEGylated conjugates, * = 30 kD; for βγ/αβγ ratio: ratio of the EC50 values. In kind it is cell-based. The method, then:
as §1, §2, §3, §4, §5, §6

Series [3] has as its system pSTAT5 and proliferation in CD8+ T, NK and Treg cells. Description: Pharmacodynamics in peripheral blood compartment (pSTAT5, Ki-67, cell counts), Example 5. In kind it is in vivo, C57BL/6 mice. Particulars: mice. From the text:
(§7) Terminal blood samples were collected via cardiac puncture at the points indicated. […] Plasma and blood cells (in both studies) and tumors in study E3826-U1803 were collected for PK and PD analyses.
STAT5 phosphorylation and induction of cell proliferation (the early molecular marker Ki-67 and cell counts) was used as pharmacodynamics readouts to assess the pharmacological profile of P65_30kD relative to its pharmacokinetics.

The nature of series [4]: MTD / toxicology study E3826-U1802 in naïve Balb/c mice (hematology, histopathology, organ weight, cytokines). In kind it is in vivo. Particulars: Balb/c mice. As to the method:
A dose ranging study of P65_30kD was conducted in naïve female Balb/c mice at Crown Biosciences, Inc. (San Diego, Calif.). […] Blood samples were drawn via sub mandibular vein at 8 time points (0.25, 1, 4, 12, 24, 34, 48 & 72 h).
A major of toxicity associated with high-dose aldesleukin is vascular leak syndrome and associated Cytokine Release Syndrome (CRS). […] The analysis performed was hematology, histopathology, organ weight, and cytokine analyses.

A short description of series [5]: PK study E3826-U1704 in naïve C57BL/6 mice (human IL-2 ELISA of plasma). Particulars: for t½: 0.3 mg/kg. In kind it is in vivo. As to the method:
as §7
Bioanalysis of plasma samples was performed using a qualified human IL-2 ELISA assay (Abcam, Cambridge, UK). Concentrations of Aldesleukin, E62_30kD and P65_30kD and the internal standard in samples derived from plasma were determined using an ELISA assay. […] The PK data were imported into Phoenix WinNonlin v6.4 (Certara/Pharsight, Princeton, N.J.) for analysis. The group mean plasma concentration versus time data were analyzed with noncompartmental methods using an IV bolus administration model.

The mark [6] stands for this setting: C57BL/6 female mice, single IV bolus 0.3 mg/kg, E62_5 kD from a separate study.

Consider “V69: Table 2: 30 kD PEGylated IL-2 conjugate at site V69 [Compound V69]”, for which, in series [1], the EC50 (as a rule, the concentration needed to bring the measured effect to its halfway point) amounted to 0.083 nM. In series [2], the midpoint of the response, the EC50, lay at 9.99 nM and the βγ/αβγ ratio was 121.
Take “F42: Table 2: 10 kD PEGylated IL-2 conjugate at site F42 [Compound F42]”: the EC50 in series [1] turned out to be 0.515 nM. Moreover, in series [2], the EC50 is 6.09 nM and the βγ/αβγ ratio worked out at 12.
Taken in the same sequence, the figures for “R38: Table 2: 10 kD PEGylated IL-2 conjugate at site R38 [Compound R38]” were 0.165 nM, 4.16 nM and 25.
For “E62: Table 2: 10 kD PEGylated IL-2 conjugate at site E62 [Compound E62]” the same measures were 1.5 nM, 3 nM and 2.
Taken in the same sequence, the figures for “Y45: Table 2: 30 kD PEGylated IL-2 conjugate at site Y45 [Compound Y45]” were 0.11 nM, 9.06 nM and 83.
“K43: Table 2: 10 kD PEGylated IL-2 conjugate at site K43 [Compound K43]” yielded an EC50 in series [1] of 0.131 nM. In addition, in series [2], a half-maximal response (EC50) required 9.84 nM and the βγ/αβγ ratio was found to be 75.
For “E68: Table 2: 10 kD PEGylated IL-2 conjugate at site E68 [Compound E68]” the same measures were 0.0893 nM, 7.7 nM and 86.
Taken in the same sequence, the figures for “K35: Table 2: 10 kD PEGylated IL-2 conjugate at site K35 [Compound K35]” were 0.15 nM, 6.75 nM and 45.
Consider aldesleukin [reference compound], for which the “pSTAT5 induction returned to baseline after” value in series [3] was found to be 2 h. The “systemic levels of IFNγ” value in series [4] is given as “transient elevation”. The “plasma IL-5 levels” value in series [4] (dose range 0.01-5.0 mg/kg) was “elevated plasma IL-5 levels starting at 1 mg/kg to 5 mg/kg”. Further, the “hematology, histopathology or body weights relative to vehicle control” value in series [4] (P65_30kD single IV 0.01-5.0 mg/kg, aldesleukin IV BID × 3) was “Abnormalities were not observed”. Further, in series [5] (setting [6]), the AUC0-t amounted to 229 ng·h/mL; the AUCINF was 230 ng·h/mL; the CL was determined as 21.67 mL/min/kg; the Cmax (as a rule, the maximum level reached in the sampled fluid or tissue) turned out to be 884 ng/mL. In series [5] (setting [6]), the Tmax (usually the time at which the peak concentration occurs) is 1.8 min; the “Vss (distribution volume)” value stood at 0.39 L/kg; the t½ (as a rule, how long it takes for the measured level to halve) was 34.4 min. Besides, in series [5] (C57BL/6 female mice, single IV bolus 0.3 mg/kg, E62_5 kD from a separate study, listed as aldesleukin), the t½ was found to be 34.2 min. The “mean plasma concentrations measurable out to (post-dose)” value in series [5] (single IV bolus, 120 h = last measured time point) is given as 4 h.
In the case of “T41: Table 2: 10 kD PEGylated IL-2 conjugate at site T41 [Compound T41]”, the values for the EC50 in series [1] and in series [2] were 0.0489 nM and 6.37 nM, respectively. Moreover, the βγ/αβγ ratio in series [2] was found to be 130.
